Measured values from the supplement of paper PMC10567573.

B1: DLC1 (parent)
chain: NDDSADYQHFLQDCVDGLFKEVKE

Variants of: B1
Test: protein stability index of a GFP-peptide fusion (GPS, HEK-293T) (PSI 1-6); higher = more stable
Details: c terminus: a fixed tail appended
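Further: lentivirally expressed fusions sorted by FACS into six bins by GFP to DsRed ratio, PSI derived from sequencing read proportions per bin multiplied by bin number.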

| Variant | protein stability index |
| --- | --- |
| S4D | 2.9 |
| S4E | 1.63 |
| S4F | 2.26 |
| S4G | 3.56 |
| S4H | 2.65 |
| S4I | 2 |
| S4K | 1.36 |
| S4L | 2.91 |
| S4M | 2.05 |
| S4N | 2.57 |
| S4P | 2.34 |
| S4R | 2.41 |
| S4V | 2.57 |
| S4W | 2.26 |
| S4Y | 2.22 |
| A5C | 2.05 |
| A5D | 2.42 |
| A5E | 2.92 |
| A5F | 1.68 |
| A5G | 2.4 |
| A5H | 2.55 |
| A5I | 2.05 |
| A5K | 2.93 |
| A5L | 2.73 |

| Variant | protein stability index |
| --- | --- |
| A5M | 2.15 |
| A5N | 2.9 |
| A5P | 2.4 |
| A5Q | 2.55 |
| A5R | 2.49 |
| A5S | 1.91 |
| A5T | 2.46 |
| A5V | 2.02 |
| A5W | 2.1 |
| A5Y | 2.17 |
| D6A | 2.32 |
| D6C | 2.8 |
| D6E | 3.29 |
| D6F | 2.81 |
| D6G | 3.62 |
| D6H | 3.3 |
| D6I | 2.32 |
| D6K | 3 |
| D6L | 2.03 |
| D6M | 2.63 |
| D6N | 2.4 |
| D6P | 3.38 |
| D6Q | 3.12 |
| D6R | 2.94 |

| Variant | protein stability index |
| --- | --- |
| D6S | 3.44 |
| D6T | 2.5 |
| D6V | 2.24 |
| D6W | 2.52 |
| D6Y | 2.94 |
| Y7A | 3.78 |
| Y7C | 2.55 |
| Y7D | 4.17 |
| Y7E | 4.11 |
| Y7F | 2.05 |
| Y7G | 4.01 |
| Y7H | 4.36 |
| Y7I | 1.75 |
| Y7K | 4.33 |
| Y7L | 3.03 |
| Y7M | 2.08 |
| Y7N | 5.14 |
| Y7P | 4.62 |
| Y7Q | 4.52 |
| Y7R | 4.1 |
| Y7S | 3.89 |
| Y7T | 3.31 |
| Y7V | 3 |
| Q8A | 2.4 |

| Variant | protein stability index |
| --- | --- |
| Q8C | 1.69 |
| Q8D | 2.96 |
| Q8E | 2.62 |
| Q8F | 2.65 |
| Q8G | 2.75 |
| Q8H | 2.36 |
| Q8I | 2.26 |
| Q8K | 2.1 |
| Q8L | 1.77 |
| Q8M | 1.43 |
| Q8N | 3.03 |
| Q8P | 2.64 |
| Q8R | 2.08 |
| Q8S | 2.88 |
| Q8T | 2.44 |
| Q8V | 2.93 |
| Q8W | 3.5 |
| Q8Y | 1.56 |
| H9A | 3.13 |
| H9C | 2.53 |
| H9D | 2.83 |
| H9E | 3.47 |
| H9F | 2.32 |
| H9G | 2.62 |

| Variant | protein stability index |
| --- | --- |
| H9I | 2.48 |
| H9K | 2.63 |
| H9L | 2.21 |
| H9M | 2.74 |
| H9N | 3.02 |
| H9P | 3.71 |
| H9Q | 2.23 |
| H9R | 2.86 |
| H9S | 3.43 |
| H9T | 2.25 |
| H9V | 1.92 |
| H9W | 3.03 |
| H9Y | 2.24 |
| F10A | 2.08 |
| F10C | 2.66 |
| F10D | 5.1 |
| F10E | 3.75 |
| F10G | 4.53 |
| F10H | 4.34 |
| F10I | 1.78 |
| F10K | 3.6 |
| F10L | 1.62 |
| F10M | 2.34 |
| F10N | 4.56 |

| Variant | protein stability index |
| --- | --- |
| F10P | 4.36 |
| F10Q | 3.16 |
| F10R | 3.96 |
| F10S | 3.92 |
| F10T | 2.47 |
| F10V | 1.42 |
| F10W | 1.98 |
| F10Y | 2.75 |
| L11A | 5.62 |
| L11C | 3.07 |
| L11D | 5.47 |
| L11E | 5.25 |
| L11G | 5.35 |
| L11H | 5.08 |
| L11I | 3.54 |
| L11K | 5.08 |
| L11M | 3.29 |
| L11N | 4.76 |
| L11P | 4.51 |
| L11Q | 5.4 |
| L11R | 5.35 |
| L11S | 5.1 |
| L11T | 4.94 |
| L11V | 4.18 |

| Variant | protein stability index |
| --- | --- |
| L11W | 3.78 |
| L11Y | 4.47 |
| Q12C | 3.91 |
| Q12D | 4.83 |
| Q12E | 4.75 |
| Q12F | 3.48 |
| Q12G | 4.34 |
| Q12H | 3.17 |
| Q12I | 3 |
| Q12K | 2.33 |
| Q12L | 3.31 |
| Q12M | 3.73 |
| Q12N | 4.24 |
| Q12P | 4.15 |
| Q12R | 2.42 |
| Q12S | 3.3 |
| Q12T | 4.32 |
| Q12V | 3.33 |
| Q12W | 1.79 |
| Q12Y | 3.71 |
| D13A | 1.79 |
| D13C | 2.09 |
| D13E | 2.66 |
| D13F | 1.86 |

| Variant | protein stability index |
| --- | --- |
| D13G | 2.42 |
| D13H | 1.51 |
| D13I | 1.84 |
| D13K | 2.05 |
| D13L | 1.76 |
| D13M | 2.34 |
| D13N | 2.38 |
| D13P | 2.27 |
| D13Q | 2.24 |
| D13R | 2.02 |
| D13S | 2.2 |
| D13T | 2.16 |
| D13V | 1.56 |
| D13Y | 2.14 |
| C14A | 2.33 |
| C14D | 5.03 |
| C14E | 5.38 |
| C14F | 2.49 |
| C14G | 4.86 |
| C14H | 5.11 |
| C14I | 2.41 |
| C14K | 4.78 |
| C14L | 1.97 |
| C14M | 3.63 |

| Variant | protein stability index |
| --- | --- |
| C14N | 5.34 |
| C14P | 5.07 |
| C14Q | 4.71 |
| C14R | 4.87 |
| C14S | 4.91 |
| C14T | 4.12 |
| C14V | 3.21 |
| C14W | 4.31 |
| C14Y | 2.54 |
| V15A | 4.04 |
| V15C | 4.79 |
| V15D | 4.8 |
| V15E | 4.9 |
| V15F | 3.85 |
| V15G | 5.45 |
| V15H | 4.94 |
| V15I | 2.68 |
| V15K | 4.71 |
| V15L | 3.34 |
| V15M | 4.34 |
| V15N | 4.78 |
| V15P | 4.6 |
| V15Q | 4.74 |
| V15R | 4.73 |

| Variant | protein stability index |
| --- | --- |
| V15S | 4.71 |
| V15T | 5.09 |
| V15W | 3.8 |
| V15Y | 3.61 |
| D16A | 2.08 |
| D16C | 2.29 |
| D16E | 2.08 |
| D16F | 2.34 |
| D16H | 3.44 |
| D16I | 1.49 |
| D16K | 2.56 |
| D16L | 2.12 |
| D16M | 2.81 |
| D16N | 2.81 |
| D16P | 4.34 |
| D16Q | 2.31 |
| D16R | 4.08 |
| D16S | 3.22 |
| D16T | 3.28 |
| D16V | 2.99 |
| D16W | 1.8 |
| D16Y | 2.21 |
| G17A | 3.68 |
| G17C | 1.71 |

| Variant | protein stability index |
| --- | --- |
| G17D | 4.28 |
| G17E | 2.41 |
| G17F | 2.12 |
| G17H | 2.37 |
| G17I | 2.19 |
| G17K | 2.73 |
| G17L | 1.82 |
| G17M | 2.18 |
| G17N | 2.39 |
| G17P | 4.92 |
| G17Q | 2.44 |
| G17R | 2.01 |
| G17S | 2.58 |
| G17T | 2.21 |
| G17V | 2.16 |
| G17W | 2.43 |
| G17Y | 2.44 |
| L18A | 5.02 |
| L18C | 5.13 |
| L18D | 5.73 |
| L18E | 5.3 |
| L18F | 3.33 |
| L18G | 5.6 |
| L18H | 5.37 |

| Variant | protein stability index |
| --- | --- |
| L18I | 3.73 |
| L18K | 5.3 |
| L18M | 4.47 |
| L18N | 5.43 |
| L18P | 4.93 |
| L18Q | 5.2 |
| L18R | 4.58 |
| L18S | 5.03 |
| L18T | 4.96 |
| L18V | 4.53 |
| L18W | 4.64 |
| L18Y | 3.71 |
| F19A | 5.02 |
| F19C | 3.38 |
| F19D | 5.61 |
| F19E | 4.54 |
| F19G | 5.54 |
| F19H | 4.82 |
| F19I | 2.72 |
| F19K | 5.25 |
| F19L | 1.51 |
| F19M | 3.72 |
| F19N | 5.21 |
| F19P | 5.17 |

| Variant | protein stability index |
| --- | --- |
| F19Q | 5.08 |
| F19R | 4.46 |
| F19S | 5.67 |
| F19T | 5.45 |
| F19V | 2.89 |
| F19W | 2.96 |
| F19Y | 2.94 |
| K20A | 3.35 |
| K20C | 3.38 |
| K20D | 5.24 |
| K20E | 3.55 |
| K20F | 2.93 |
| K20G | 3.84 |
| K20H | 3.45 |
| K20I | 3.05 |
| K20L | 2.87 |
| K20M | 2.68 |
| K20N | 3.08 |
| K20P | 4.86 |
| K20Q | 3.23 |
| K20R | 2.51 |
| K20S | 4.74 |
| K20T | 4 |
| K20V | 3.56 |

| Variant | protein stability index |
| --- | --- |
| K20W | 2.95 |
| K20Y | 2.88 |
| E21A | 2.29 |
| E21C | 2 |
| E21D | 4.67 |
| E21F | 2.51 |
| E21G | 3.51 |
| E21H | 2.42 |
| E21I | 3.01 |
| E21K | 2.57 |
| E21L | 1.67 |
| E21M | 2.24 |
| E21N | 3.81 |
| E21P | 3.94 |
| E21Q | 2.74 |
| E21R | 2.55 |
| E21S | 3.27 |
| E21T | 1.98 |
| E21V | 1.83 |
| E21W | 2.28 |
| E21Y | 2.03 |
| V22A | 4.42 |
